± gives the uncertainty stated by the source.
B1: Integrator complex subunit 12, residues 155 to 213; numbered along this chain, Q96CB8 (parent)
chain: AMEMGLACVVCRQMMVASGNQLVECQECHNLYHRDCHKPQVTDKEANDPRLVWYCARCT
B2: RUN and FYVE domain-containing protein 1, residues 639 to 698; numbered along this chain, Q96T51 (parent)
chain: WLKDDEATHCRQCEKEFSISRRKHHCRNCGHIFCNTCSSNELALPSYPKPVRVCDSCHTL

Variants of: B1
Test: abundance fitness (aPCA) (normalised: wild type 0, dead -1); higher = more abundant; growth selection in yeast, the domain comes from the species named
Conditions: Homo sapiens

Variant	abundance fitness
L51W	-0.108 ± 0.059
Q40I	0.023 ± 0.098
S18C	-0.135 ± 0.035
R50P	-0.033 ± 0.059
T59V	-0.227 ± 0.12
V10M	-0.153 ± 0.06
E24H	-0.226 ± 0.056
K38V	0.035 ± 0.046
A56P	-0.185 ± 0.054
C28Q	-0.801 ± 0.08
C28F	-0.818 ± 0.052
V16G	0.037 ± 0.031
M15A	0.067 ± 0.037
D48F	-0.254 ± 0.24
M2F	-0.055 ± 0.036
V10S	-0.401 ± 0.034
A7C	-0.022 ± 0.04
M2D	-0.185 ± 0.044
Q13R	-0.2 ± 0.043
T42V	-0.136 ± 0.044
S18G	-0.002 ± 0.032

Variant	abundance fitness
P39S	-0.228 ± 0.049
C8N	-0.675 ± 0.042
C55H	-0.938 ± 0.18
D48V	-0.063 ± 0.057
Q13A	-0.088 ± 0.047
T42A	-0.024 ± 0.04
N30Y	-0.081 ± 0.045
G19E	0.058 ± 0.065
N47E	-0.005 ± 0.054
W53Q	-0.205 ± 0.061
K38M	-0.05 ± 0.049
Y32F	0.003 ± 0.035
E27T	-0.036 ± 0.039
Q40H	-0.055 ± 0.093
C28K	-0.648 ± 0.072
L22E	-0.353 ± 0.097
H33K	-0.542 ± 0.068
V52R	-0.032 ± 0.046
G5I	-0.205 ± 0.039
Y54E	-0.069 ± 0.047
A7Y	-0.144 ± 0.038

Variant	abundance fitness
A46I	-0.077 ± 0.075
V41E	-0.303 ± 0.059
P49H	-0.132 ± 0.17
Q26M	-0.184 ± 0.08
E27C	-0.107 ± 0.034
A46L	0.003 ± 0.048
L31W	0.101 ± 0.049
V52P	0.019 ± 0.052
R34G	0.066 ± 0.086
Q21I	-0.091 ± 0.046
S18P	0.077 ± 0.055
A1F	-0.161 ± 0.11
A46V	0.008 ± 0.043
C8G	-1.11 ± 0.09
R12F	-0.226 ± 0.034
C55F	-1.05 ± 0.21
M14N	0.031 ± 0.036
N30H	-0.049 ± 0.065
E24Y	-0.493 ± 0.052

Variants of: B2
Test: as above
Conditions: Homo sapiens

Variant	abundance fitness
A7R	-0.031 ± 0.031
P50F	-0.211 ± 0.13
V51C	-1.01 ± 0.13
F33H	-0.458 ± 0.16
C54Y	-0.845 ± 0.18
C57A	-0.756 ± 0.091
H24R	-0.378 ± 0.045
K23Q	-0.261 ± 0.055
C26Q	-0.855 ± 0.087
H31D	-0.126 ± 0.051
S18N	-0.12 ± 0.08
H25M	0.051 ± 0.037
R11V	-0.155 ± 0.04
R11A	0.227 ± 0.032
K23V	-0.257 ± 0.037
R21S	-0.355 ± 0.045
R11G	0.127 ± 0.035
R22A	-0.102 ± 0.045
L60F	-0.163 ± 0.07
T59K	0.144 ± 0.14
L44P	-0.326 ± 0.08
L42P	-0.606 ± 0.076
C34G	-0.608 ± 0.045
L44G	-0.166 ± 0.053
W1Y	0.311 ± 0.084

Variant	abundance fitness
R21C	-1.14 ± 0.31
H9F	-0.135 ± 0.049
S18I	-0.144 ± 0.057
I19D	-0.014 ± 0.058
L2W	-0.329 ± 0.066
K49G	-0.057 ± 0.055
C13P	-0.984 ± 0.12
L60A	0.036 ± 0.059
P50N	-0.043 ± 0.086
E14R	-0.431 ± 0.049
H9I	-0.216 ± 0.07
P45K	0.091 ± 0.05
E16N	-0.029 ± 0.06
L60V	-0.202 ± 0.065
R27E	0.085 ± 0.058
T36V	0.342 ± 0.029
C26R	-0.804 ± 0.076
G30A	-0.392 ± 0.072
H24N	-0.256 ± 0.087
K3F	-1.14 ± 0.16
V51S	-0.345 ± 0.062
E41V	-0.063 ± 0.042
K3S	-0.55 ± 0.057
H25D	-0.176 ± 0.058
E6K	0.126 ± 0.053

Variant	abundance fitness
L44K	-0.384 ± 0.071
H24C	-0.135 ± 0.066
T36P	0.202 ± 0.048
E6F	-0.295 ± 0.066
E41M	-0.134 ± 0.052
L2F	-0.061 ± 0.043
H58I	-0.157 ± 0.057
H25F	-0.045 ± 0.091
N35V	0.255 ± 0.034
T59N	-0.058 ± 0.081
A43L	0.058 ± 0.037
L42A	0.11 ± 0.045
Q12S	-0.412 ± 0.051
P45V	-0.13 ± 0.039
C57G	-0.53 ± 0.048
A7E	0.017 ± 0.05
L44S	-0.454 ± 0.053
F33R	-0.6 ± 0.053
H31Q	-0.019 ± 0.056
F33Y	0.005 ± 0.11
S46W	0.077 ± 0.053
S20D	0.13 ± 0.067
R27N	0 ± 0.088
P45T	0.047 ± 0.049
L42N	-0.317 ± 0.14

Variant	abundance fitness
C10R	-0.843 ± 0.058
L44T	-0.127 ± 0.072
I19H	-0.036 ± 0.039
L42Y	-0.151 ± 0.07
K23I	-0.207 ± 0.086
T8I	0.047 ± 0.046
K23E	-0.165 ± 0.065
T8G	-0.062 ± 0.036
T59L	-0.048 ± 0.04
D5G	-0.388 ± 0.042
L42V	0.092 ± 0.047
P50M	-0.162 ± 0.063
S18H	-0.408 ± 0.11
L60G	0.229 ± 0.11
N40Q	-0.001 ± 0.053
S46F	-0.01 ± 0.089
K15M	-0.373 ± 0.091
H24W	-0.282 ± 0.048
D4P	-0.494 ± 0.061
C57V	-0.665 ± 0.05
L44W	-0.375 ± 0.05
I19M	-0.006 ± 0.061
T59E	0.026 ± 0.087
H24L	-0.458 ± 0.046
N28F	-0.177 ± 0.12

Variant	abundance fitness
R27M	0.019 ± 0.051
A43I	0.019 ± 0.063
K49P	-0.72 ± 0.15
E16L	-0.314 ± 0.041
E41Y	-0.126 ± 0.072
C26N	-0.418 ± 0.12
E16V	-0.282 ± 0.048
N40Y	-0.906 ± 0.15
V51Y	-0.562 ± 0.12
C37K	-0.658 ± 0.072
P48E	0.118 ± 0.051
P48M	-0.309 ± 0.07
I19K	0.073 ± 0.079
H31I	-0.113 ± 0.059
K15W	-0.449 ± 0.049
F33E	-0.576 ± 0.086
N35G	0.436 ± 0.039
C57K	-0.613 ± 0.078
N28S	-0.099 ± 0.038
W1V	-0.005 ± 0.055
K15A	-0.527 ± 0.053
R11E	0.079 ± 0.038
D4I	-0.241 ± 0.058
C37T	-0.627 ± 0.061
C26M	-0.76 ± 0.094

Variant	abundance fitness
C37L	-0.719 ± 0.049
E6L	-0.425 ± 0.044
G30C	-0.453 ± 0.075
E14C	-0.243 ± 0.064
C26S	-0.636 ± 0.065
E41N	-0.184 ± 0.065
K23L	-0.433 ± 0.039
R21L	-0.195 ± 0.03
N40K	0.078 ± 0.056
S46G	0.243 ± 0.05
V51W	-0.535 ± 0.097
I32D	-0.079 ± 0.13
N35I	0.047 ± 0.066
A43K	-0.071 ± 0.059
C26E	-0.655 ± 0.11
S56H	0.355 ± 0.081
V51K	-0.636 ± 0.2
K23D	-0.315 ± 0.081
L2M	-0.074 ± 0.065
N35L	0.215 ± 0.034
N35M	0.191 ± 0.039
L44N	-0.388 ± 0.093
E41P	-0.418 ± 0.06
H24F	-0.351 ± 0.063
A7H	-0.176 ± 0.07

Variant	abundance fitness
E14W	-0.24 ± 0.055
C13E	-0.738 ± 0.07
D4K	-0.068 ± 0.06
G30V	-0.764 ± 0.062
K15C	-0.196 ± 0.049
A7L	-0.234 ± 0.038
G30M	-0.264 ± 0.046
T59G	0.161 ± 0.038
S56K	0.232 ± 0.063
R21P	-0.503 ± 0.074
C29V	-0.904 ± 0.07
E6G	0.001 ± 0.043
K15Y	-0.191 ± 0.062
C29P	-0.835 ± 0.081
E14I	-0.167 ± 0.061
E14Q	-0.113 ± 0.065
F17G	-0.793 ± 0.052
D5H	-0.426 ± 0.12
C10Q	-0.678 ± 0.085
D5P	-0.537 ± 0.067
A7M	-0.302 ± 0.055
L60W	-0.366 ± 0.064
P48N	-0.324 ± 0.074
C29G	-1 ± 0.075
A7G	-0.09 ± 0.039

Variant	abundance fitness
Q12C	0.039 ± 0.052
N35H	0.178 ± 0.059
S46A	0.16 ± 0.068
Y47P	-0.433 ± 0.061
C13R	-0.802 ± 0.061
C57H	-0.957 ± 0.18
T59C	-0.051 ± 0.052
V51Q	-0.17 ± 0.11
L44F	-0.196 ± 0.051
T8D	-0.087 ± 0.056
E14M	-0.212 ± 0.053
Y47F	-0.05 ± 0.075
L42C	0.045 ± 0.05
Q12N	-0.106 ± 0.085
Y47E	-0.062 ± 0.051
E16Y	-0.349 ± 0.071
Y47R	-0.345 ± 0.042
E6R	-0.336 ± 0.055
C34L	-0.708 ± 0.052
N35R	0.172 ± 0.034
F33T	-0.238 ± 0.053
C34F	-0.853 ± 0.082
P50T	-0.233 ± 0.065
E41S	-0.155 ± 0.032
A43T	-0.045 ± 0.058

Variant	abundance fitness
Q12T	-0.565 ± 0.051
S39N	-0.036 ± 0.071
V51D	-0.879 ± 0.15
T59A	0.263 ± 0.042
E16S	-0.179 ± 0.04
K15V	-0.359 ± 0.048
D5S	-0.209 ± 0.039
T59Y	-0.183 ± 0.06
C29H	-1.25 ± 0.26
S18G	-0.049 ± 0.028
T59V	0.127 ± 0.046
K23T	-0.204 ± 0.049
H25N	-0.311 ± 0.081
R21K	-0.184 ± 0.055
C10A	-0.765 ± 0.068
L60I	0.094 ± 0.19
F17Y	-0.769 ± 0.12
C37Y	-0.615 ± 0.16
F33D	-0.573 ± 0.14
S18P	-0.398 ± 0.056
D5N	0.004 ± 0.045
E14G	0.006 ± 0.034
A7F	-0.028 ± 0.046
K3H	-0.42 ± 0.089
Y47S	-0.081 ± 0.044

Variant	abundance fitness
L44D	0.138 ± 0.068
S46Y	-0.2 ± 0.064
L60S	-0.067 ± 0.044
S46D	0.365 ± 0.092
P50L	-0.085 ± 0.043
Y47V	-0.026 ± 0.039
E14L	-0.377 ± 0.044
N40H	-0.067 ± 0.1
E41H	-0.195 ± 0.056
K49Y	-0.34 ± 0.081
R22W	-0.18 ± 0.038
C57Y	-0.828 ± 0.12
K3I	-0.393 ± 0.09
Q12K	-0.449 ± 0.064
N35P	0.233 ± 0.051
S18K	-0.087 ± 0.047
T8S	-0.016 ± 0.038
N28M	-0.252 ± 0.05
K23M	-0.137 ± 0.049
N35S	0.23 ± 0.038
I19T	0.095 ± 0.042
T36I	0.083 ± 0.076
L2P	-1.13 ± 0.17
C57R	-0.673 ± 0.061
H25I	-0.13 ± 0.1

Variant	abundance fitness
I32G	0.195 ± 0.04
H9Y	-0.357 ± 0.06
E41L	-0.18 ± 0.034
K15R	-0.053 ± 0.029
C37R	-0.553 ± 0.047
C13D	-0.874 ± 0.13
C37S	-0.568 ± 0.052
C26G	-0.709 ± 0.072
S56D	0.097 ± 0.055
V51G	-0.55 ± 0.058
H31K	-0.143 ± 0.062
R21W	-1.06 ± 0.13
C13K	-1.07 ± 0.14
L60E	0.031 ± 0.13
R21Q	-0.069 ± 0.047
L2V	-0.044 ± 0.064
P45M	-0.073 ± 0.062
T36H	0.287 ± 0.075
C26A	-0.694 ± 0.083
E41D	-0.173 ± 0.06
C34N	-0.709 ± 0.11
C29W	-1.03 ± 0.097
C10Y	-0.72 ± 0.072
